From patent publication US20160168253

Target: T1, peptide substrate MCA-RPPGFSAFK(Dnp)-OH (R&D Systems Cat. No. ES005)
T1 chain: RPPGFSAFK

B1: Neprilysin (R&D Systems, Cat. No 1182-ZNC) (protein)
chain: YDDGICKSSDCIKSAARLIQNMDATTEPCTDFFKYACGGWLKRNVIPETSSRYGNFDILRDELEVVLKDVLQEPKTEDIVAVQKAKALYRSCINESAIDSRGGEPLLKLLPDIYGWPVATENWEQKYGASWTAEKAIAQLNSKYGKKVLINLFVGTDDKNSVNHVIHIDQPRLGLPSRDYYECTGIYKEACTAYVDFMISVARLIRQEERLPIDENQLALEMNKVMELEKEIANATAKPEDRNDPMLLYNKMTLAQIQNNFSLEINGKPFSWLNFTNEIMSTVNISITNEEDVVVYAPEYLTKLKPILTKYSARDLQNLMSWRFIMDLVSSLSRTYKESRNAFRKALYGTTSETATWRRCANYVNGNMENAVGRLYVEAAFAGESKHVVEDLIAQIREVFIQTLDDLTWMDAETKKRAEEKALAIKERIGYPDDIVSNDNKLNNEYLELNYKEDEYFENIIQNLKFSQSKQLKKLREKVDKDEWISGAAVVNAFYSSGRNQIVFPAGILQPPFFSAQQSNSLNYGGIGMVIGHEITHGFDDNGRNFNKDGDLVDWWTQQSASNFKEQSQCMVYQYGNFSWDLAGGQHLNGINTLGENIADNGGLGQAYRAYQNYIKKNGEEKLLPGLDLNHKQLFFLNFAQVWCGTYRPEYAVNSIKTDVHSPGNFRIIGTLQNSAEFSEAFHCRKNSYMNPEKKCRVW
Km [µM] (apparent Km, hydrolysis of fluorogenic peptide substrate): 3.2 µM | Vmax: 2930 s⁻¹
